Assay results: patent US8119364B2, “Methods for generating analogs of coenzyme A” (The Regents of the University of California, priority 2005, dated 2012)

Substrate: CC(C)(CO)[C@@H](O)C(=O)NCCC(=O)O
Experiment: Kinetic assay of pantetheine analogs as substrates of PanK
Assay type: biochemical
Conditions: other: compound as substrate of E. coli PanK
Method: As mentioned earlier, phosphorylation of the primary hydroxyl group of pantothenate by the first protein in the CoA biosynthesis pathway, PanK, is believed to be the rate limiting step in vivo. Jackowski and Rock, J. Bacteria 148:926, 1981. Due to its role as the gatekeeper of CoA biosynthesis, each of the new analogs was assayed for kinetic activity with PanK (Table 2).
The assay was performed as previously described using the prototypical bacterial PanK, CoAA from E. coli. Kumar and Aldrich, Org. Lett. 5:613, 2003. The reaction of CoAA with the natural substrate pantothenate gave values that conformed to those previously reported in the literature. Worthington and Burkart, Org. Biomol. Chem. 4:44, 2005; Strauss and Begley, J. Biol. Chem. 277:48205, 2002. […] Conversely, compounds with PEG linkers between the pantoic acid moiety and the bioorthogonal terminus were poor substrates for CoAA.

B1: E. coli PanK (CoAA) (Escherichia coli K-12) (protein)
chain: MSIKEQTLMTPYLQFDRNQWAALRDSVPMTLSEDEIARLKGINEDLSLEEVAEIYLPLSRLLNFYISSNLRRQAVLEQFLGTNGQRIPYIISIAGSVAVGKSTTARVLQALLSRWPEHRRVELITTDGFLHPNQVLKERGLMKKKGFPESYDMHRLVKFVSDLKSGVPNVTAPVYSHLIYDVIPDGDKTVVQPDILILEGLNVLQSGMDYPHDPHHVFVSDFVDFSIYVDAPEDLLQTWYINRFLKFREGAFTDPDSYFHNYAKLTKEEAIKTAMTLWKEINWLNLKQNILPTRERASLILTKSANHAVEEVRLRK
Protein B1 has a Km of 28.56 ± 1.77 µM, a kcat of 0.521 ± 0.00967 s⁻¹ and a kcat/Km of 18200 ± 680 M⁻¹ s⁻¹.
